Laboratory results as given in US20220162313A1 (Xencor, published 2022).

Molecular target: T1, human SSTR2 (human, UniProt P30874 1-369)
T1 construct: whole, on cells; also called human somatostatin receptor 2; cell surface human SSTR2
Experiment: flow cytometry on human SSTR2-transfected CHO cells, PE-labeled secondary antibody
Protocol: Cell surface binding of anti-SSTR2 antibodies and exemplary anti-SSTR2×anti-CD3 bispecific antibodies were assessed using human SSTR2-transfected CHO cells. Cells were incubated with indicated test articles for 45 minutes on ice and centrifuged. Cells were resuspended with staining buffer containing phycoerythrin (PE) labeled secondary antibody (2 μg/mL; goat anti-human IgG) and then incubated for 45 minutes on ice. Cells were centrifuged twice and then resuspsended with staining buffer. Binding was measured by flow cytometry (FIGS. 17A-P).
Cell surface binding of XmAb18087 and control anti-RSV×anti-CD3 bispecific antibody (XENP13245) were assessed using humanSSTR2-transfected CHO cells and cynoSSTR2-transfected CHO cells. Cell surface binding was also assessed using parental CHO cells as control. Binding was measured by flow cytometry using phycoerythrin (PE) labeled secondary antibody as generally described in Example 1C.

T1 sequence (P30874 whole entry): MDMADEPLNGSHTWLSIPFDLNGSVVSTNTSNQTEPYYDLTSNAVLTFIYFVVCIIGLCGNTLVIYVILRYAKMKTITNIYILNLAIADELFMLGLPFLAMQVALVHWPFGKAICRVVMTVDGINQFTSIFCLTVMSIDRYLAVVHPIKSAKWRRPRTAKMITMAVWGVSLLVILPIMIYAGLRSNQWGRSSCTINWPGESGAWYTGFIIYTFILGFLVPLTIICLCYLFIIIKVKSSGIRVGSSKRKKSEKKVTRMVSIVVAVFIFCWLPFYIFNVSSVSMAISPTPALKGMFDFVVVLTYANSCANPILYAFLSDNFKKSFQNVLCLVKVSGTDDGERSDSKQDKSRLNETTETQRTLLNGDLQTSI

B1: XmAb18087 (bispecific antibody)
heavy: EVQLVESGGGLVQPGGSLRLSCAASGFTFSDYGMAWFRQAPGKGLEWVSFISNLGYSIYYADSVKGRFTISRDNAKNSLYLQMNSLRAEDTAVYYCARAPYDYDSFDPMDYWGQGTLVTVSSASTKGPSVFPLAPSSKSTSGGTAALGCLVKDYFPEPVTVSWNSGALTSGVHTFPAVLQSSGLYSLSSVVTVPSSSLGTQTYICNVNHKPSDTKVDKKVEPKSCDKTHTCPPCPAPPVAGPSVFLFPPKPKDTLMISRTPEVTCVVVDVKHEDPEVKFNWYVDGVEVHNAKTKPREEEYNSTYRVVSVLTVLHQDWLNGKEYKCKVSNKALPAPIEKTISKAKGQPREPQVYTLPPSREEMTKNQVSLTCDVSGFYPSDIAVEWESDGQPENNYKTTPPVLDSDGSFFLYSKLTVDKSRWEQGDVFSCSVMHEALHNHYTQKSLSLSPGK
chain: not shown
light: not shown
notes: also called XENP18087; XENP018087
  binding result: binds
